Source: publication doi:10.1101/2021.02.04.429857 (bioRxiv, 2021)

Target: the molecule itself
Experiment: cryo-EM structure

B1: Streptomyces coelicolor bacterioferritin (natural protein, UniProt Q9S2N0 1-167, looked up)
chain: MQGDPEVIEFLNEQLTAELTAINQYFLHAKLQDHKGWTKLAKYTRAESFDEMRHAEVLTDRILLLDGLPNYQRLFHVRVGQSVTEMFQADREVELEAIDRLRRGIEVMRAKHDITSANVFEAILADEEHHIDYLETQLDLIEKLGESLYLSTVIEQTQPDPSGPGSL
stoichiometry N: 24
